Results taken from article PMC8026907.

Tests used:
[1] = target: T1, cAMP receptor protein from Mycobacterium tuberculosis (Mycobacterium tuberculosis), P9WMH3; assay: AUC; conditions: remark: other sources report otherwise
T1 chain: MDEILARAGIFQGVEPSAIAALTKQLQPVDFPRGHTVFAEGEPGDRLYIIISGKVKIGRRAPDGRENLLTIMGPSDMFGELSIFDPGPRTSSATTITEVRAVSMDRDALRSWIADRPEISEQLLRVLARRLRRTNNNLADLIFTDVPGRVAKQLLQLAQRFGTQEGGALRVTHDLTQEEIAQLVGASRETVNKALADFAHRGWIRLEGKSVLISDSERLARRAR

[2] = target: T1, cAMP receptor protein from …; assay: SEC; conditions: remark: other sources report otherwise
CRP-MTB E178K [3] = target: T2, CRP-MTB E178K (Mycobacterium tuberculosis, UniProt P9WMH3 1-224, E178K); assay: fluorescence anisotropy; 1 mM cAMP; conditions: protein: recombinant; tags: His-tag (pET-3a); chain copies: 2; blunt
T2 sequence: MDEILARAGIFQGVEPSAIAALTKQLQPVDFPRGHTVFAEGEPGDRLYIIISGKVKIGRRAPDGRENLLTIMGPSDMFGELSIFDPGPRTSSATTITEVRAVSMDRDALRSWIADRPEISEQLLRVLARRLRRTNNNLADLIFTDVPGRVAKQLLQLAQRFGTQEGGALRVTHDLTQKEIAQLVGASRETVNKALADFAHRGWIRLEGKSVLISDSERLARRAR

CRP-MTB L47P [4] = target: T3, CRP-MTB L47P (Mycobacterium tuberculosis, UniProt P9WMH3 1-224, L47P); assay: fluorescence anisotropy; 0.1 mM cAMP; conditions: protein: recombinant; tags: His-tag (pET-3a); chain copies: 2; blunt
T3 sequence: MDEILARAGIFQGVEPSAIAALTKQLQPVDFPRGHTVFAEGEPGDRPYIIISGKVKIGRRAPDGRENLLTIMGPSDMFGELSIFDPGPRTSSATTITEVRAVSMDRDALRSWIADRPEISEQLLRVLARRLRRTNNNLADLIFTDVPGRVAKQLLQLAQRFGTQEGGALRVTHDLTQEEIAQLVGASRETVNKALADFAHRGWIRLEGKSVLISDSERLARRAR

CRP-MTB E178K [5] = target: T2, CRP-MTB E178K; assay: fluorescence anisotropy; 0.1 mM cAMP; conditions: protein: recombinant; tags: His-tag (pET-3a); chain copies: 2; blunt
CRP-MTB L47P [6] = target: T3, CRP-MTB L47P; assay: fluorescence anisotropy; no cAMP (apo); conditions: protein: recombinant; tags: His-tag (pET-3a); chain copies: 2; blunt
CRP-MTB E178K [7] = target: T2, CRP-MTB E178K; assay: fluorescence anisotropy; no cAMP (apo); conditions: protein: recombinant; tags: His-tag (pET-3a); chain copies: 2; blunt

B1: cAMP receptor protein from Mycobacterium tuberculosis, P9WMH3 (natural protein)
chain: MDEILARAGIFQGVEPSAIAALTKQLQPVDFPRGHTVFAEGEPGDRLYIIISGKVKIGRRAPDGRENLLTIMGPSDMFGELSIFDPGPRTSSATTITEVRAVSMDRDALRSWIADRPEISEQLLRVLARRLRRTNNNLADLIFTDVPGRVAKQLLQLAQRFGTQEGGALRVTHDLTQEEIAQLVGASRETVNKALADFAHRGWIRLEGKSVLISDSERLARRAR
Binder B1 has a Kd [1] of less than 10 nM, a stoichiometry N [1] of 2 and a stoichiometry N [2] of 2.

B2: SerC promoter 32-bp, fluorescein (dsDNA)
DNA 1: GCGCGTAGTGTGAACAAGCTCACATGCAAGCC
DNA 2: GGCTTGCATGTGAGCTTGTTCACACTACGCGC
For B2, the Ka (CRP-MTB E178K [3]) was 21 ± 12.9 1e8 M-1, the Ka (CRP-MTB L47P [4]) was 7.3 ± 3 1e8 M-1 and the Ka (CRP-MTB E178K [5]) was 10 ± 5 1e8 M-1. For the same binder, the Ka (CRP-MTB L47P [6]) was 2.7 ± 0.9 1e8 M-1 and the Ka (CRP-MTB E178K [7]) was 15 ± 5.3 1e8 M-1.
